Test results from US20040097586A1, “Anti-tumor compounds” (priority 2001, published 2004).
Peptide text beside a SMILES is read from it.

Experiments:
[1] = system: OF-1 mice; test: Toxicity/procoagulant activity after intravenous injection; type: in vivo; details: intravenous administration; dose levels as low as
Protocol: N-D-Ala-D-Leu-D-Ala-D-Leu-DNR was injected in the lateral tail vein of OF-1 mice at different dose levels in order to determine the minimal dose that induces acute toxicity and kills the animals in less than an hour following the injection. Animals were injected with this dose level and sacrificed befor death resulting from the injection of the conjugate occurs. Organs and tissues were collected, fixed and prepared for histopathology.

[2] = type: in vitro ADME, human
Protocol: The stability of this prodrug in whole human blood was determined, and its activation into the DNR-D-tetrapeptide (or any other positively charged derivative) was checked after incubation in the presence of human cancer cells conditioned media. Breast (MCF-7, MDA-MB-231), colon (LS-174-T), prostate (LNCaP) and lung (COR-L23, NCl-H69) cancer cell lines were used. Metabolites were analyzed by reverse phase-high pressure liquid chromatography (RP-HPLC), and fluorescence detection was used to identify and quantify the DNR derivatives generated over time. […] This particular prodrug is suitable for the in vivo validation of the concept.

[3] = system: tumor-bearing mice; test: Tissue distribution studies in tumor-bearing mice; type: in vivo; details: i.v., plasma and tissues, RP-HPLC
Protocol: Mice bearing the same tumor types used for efficacy studies were used. They were injected i.v. with the prodrug, and anesthetized at selected time points. Plasma and tissues (tumor, liver, kidney, spleen, heart, lung and skeletal muscle) were recovered, snap frozen in liquid nitrogen and stored at −80° C. The prodrug and its metabolites were then extracted and quantified by RP-HPLC with fluorescence detection.

[4] = system: enzyme X; details: cited from earlier work
[5] = Test of polycationic polymers as procoagulant; details: commercially available polymer
Protocol: An alternative to aggregation inducers to form the positively charged ‘particles’ responsible for coagulation is to use polymers such as poly-Lys. […] POIY-D-Lys of different size derivatized with D-amino acids, dipeptides, tripeptides or tetrapeptides on their terminal and side chain free amino groups were prepared (FIG. 5). Their toxicity and procoagulant activities were compared, and interesting candidates were used for the preparation of prodrugs (FIG. 5). N-succinyl-[…]-Ala-L-Leu-L-Ala-L-Leu or PEG-Ala-Leu-Ala-Leu prodrugs were prepared and compared in terms of efficacy and toxicity to the prodrugs based on aggregation inducers as described above. Alternatively, tests were performed using poly-D-Arg.

COc1cccc2c1C(=O)c1c(O)c3c(c(O)c1C2=O)C[C@@](O)(C(C)=O)C[C@@H]3O[C@H]1C[C@H](NC(=O)[C@@H](CC(C)C)NC(=O)[C@@H](C)NC(=O)[C@@H](CC(C)C)NC(=O)[C@@H](C)N)[C@H](O)[C@H](C)O1 [N-D-Ala-D-Leu-D-Ala-D-Leu-daunorubicin, N-D-Ala-D-Leu-D-Ala-D-Leu-DNR] (HELM PEPTIDE1{[dA].[dL].[dA].[dL].[COc1cccc2c1C(=O)c1c(O)c3c(c(O)c1C2=O)C[C@@](O)(C(C)=O)C[C@@H]3O[C@H]1C[C@H](N[*:1])[C@H](O)[C@H](C)O1]}$$$$V2.0)
dose level inducing disseminated intravascular blood clotting [1]: 34.5 µmol/kg

COc1cccc2c1C(=O)c1c(O)c3c(c(O)c1C2=O)C[C@@](O)(C(=O)CO)C[C@@H]3O[C@H]1C[C@H](NC(=O)[C@@H](CC(C)C)NC(=O)[C@@H](C)NC(=O)[C@@H](CC(C)C)NC(=O)[C@@H](C)N)[C@H](O)[C@H](C)O1 [N-D-Ala-D-Leu-D-Ala-D-Leu-doxorubicin] (HELM PEPTIDE1{[dA].[dL].[dA].[dL].[COc1cccc2c1C(=O)c1c(O)c3c(c(O)c1C2=O)C[C@@](O)(C(=O)CO)C[C@@H]3O[C@H]1C[C@H](N[*:1])[C@H](O)[C@H](C)O1]}$$$$V2.0; N-terminus and C-terminus assumed)
dose level inducing disseminated intravascular blood clotting [1]: 34.5 µmol/kg

N-mPEG350-[…]-Ala-L-Leu-L-Ala-L-Leu-D-Ala-D-Leu-D-Ala-D-Leu-DNR
metabolite formed upon incubation in cancer cells conditioned media [2]: yielded the positively-charged N-L-Leu-D-Ala-D-Leu-D-Ala-D-Leu-DNR derivative
stability in whole human blood [2]: relatively stable
tissue distribution: site of metabolite generation [3]: generation of a positively-charged procoagulant metabolite specifically within the tumor

N-succinyl-[…]-Ala-L-Leu-L-Ala-L-Leu
substrate quality for enzyme X [4]: optimal substrate

Poly-D-Lys
test as procoagulant polymer [5]: positively tested
